The values that follow come from patent US12459997B2, “Compounds and methods targeting interleukin-19” (Eli Lilly and Company, priority 2018, dated 2025).

Changes are numbered by the printed parent chain.

To fix the notation:
B1: M_5: murine-derived IL-19 antibody; LC SEQ ID NO: 312, HC SEQ ID NO: 313 (antibody)
heavy: EVQLQQSGPVLVKPGASVKMSCKASGYPFNDYFLGWVKQSHGKSLEWIGSINPDNDYTMSNQKFKGKATLTVDKSSSTAYMELNSLTSEDSAVYYCARYDYDWAWFAHWGQGTLVTVSAAKTTPPSVYPLAPGSAAQTNSMVTLGCLVKGYFPEPVTVTWNSGSLSSGVHTFPAVLQSDLYTLSSSVTVPSSTWPSETVTCNVAHPASSTKVDKKIVPRDCGCKPCICTVPEVSSVFIFPPKPKDVLTITLTPKVTCVVVDISKDDPEVQFSWFVDDVEVHTAQTQPREEQFNSTFRSVSELPIMHQDWLNGKEFKCRVNSAAFPAPIEKTISKTKGRPKAPQVYTIPPPKEQMAKDKVSLTCMITDFFPEDITVEWQWNGQPAENYKNTQPIMDTDGSYFVYSKLNVQKSNWEAGNTFTCSVLHEGLHNHHTEKSLSHSPGK
light: DIVMTQSPSSLAMSVGQKVTMSCKSSQSLLSSYNQKNYLAWYQRKPGQSPKLLVYFASQRATGVPDRFIGSGSGSDFTLTISSVQAEDLADYFCQQHTRLPITFGAGTKLELKRADAAPTVSIFPPSSEQLTSGGASVVCFLNNFYPKDINVKWKIDGSERQNGVLNSWTDQDSKDSTYSMSSTLTLTKDEYERHNSYTCEATHKTSTSPIVKSFNRNEC
B2: M_2: murine-derived IL-19 antibody; LC SEQ ID NO: 10, HC SEQ ID NO: 14 (antibody)
heavy: LVQLQQSDAELVKPGASLKISCKVSGYTFTDHALHWMKQRPEQGLEWIGYIYPRDGSTKYNEKFKGKATLTADRSSSTAYMELNSLTSEDSAVYFCARGWDFAMDYWGQGTSVTVSSAKTTPPSVYPLAPGSAAQTNSMVTLGCLVKGYFPEPVTVTWNSGSLSSGVHTFPAVLQSDLYTLSSSVTVPSSTWPSETVTCNVAHPASSTKVDKKIVPRDCGCKPCICTVPEVSSVFIFPPKPKDVLTITLTPKVTCVVVDISKDDPEVQFSWFVDDVEVHTAQTQPREEQFNSTFRSVSELPIMHQDWLNGKEFKCRVNSAAFPAPIEKTISKTKGRPKAPQVYTIPPPKEQMAKDKVSLTCMITDFFPEDITVEWQWNGQPAENYKNTQPIMDTDGSYFVYSKLNVQKSNWEAGNTFTCSVLHEGLHNHHTEKSLSHSPGK
light: DIVLTQSPESLAVSLGQRATISCRASESVDNYGISFIHWYQQKPGQPPKLLIYRASNLKSGIPARFSGRGSRTDFTLTINPVETDDVATYYCQQINKDPLTFGAGTKLELKRADAAPTVSIFPPSSEQLTSGGASVVCFLNNFYPKDINVKWKIDGSERQNGVLNSWTDQDSKDSTYSMSSTLTLTKDEYERHNSYTCEATHKTSTSPIVKSFNRNEC
B3: M_3: murine-derived IL-19 antibody; LC SEQ ID NO: 18, HC SEQ ID NO: 22 (antibody)
heavy: QIQLVQSGPELKKPGETVKISCKASGYTFTTYGMSWVKQAPGKGLKWMVWINTYSGVPTYVDDFKGRFAFSLETSASTAYLQINNLKNEDTATYFCARRDEGFAYWGQGTLVTVSAAKTTPPSVYPLAPGSAAQTNSMVTLGCLVKGYFPEPVTVTWNSGSLSSGVHTFPAVLQSDLYTLSSSVTVPSSTWPSETVTCNVAHPASSTKVDKKIVPRDCGCKPCICTVPEVSSVFIFPPKPKDVLTITLTPKVTCVVVDISKDDPEVQFSWFVDDVEVHTAQTQPREEQFNSTFRSVSELPIMHQDWLNGKEFKCRVNSAAFPAPIEKTISKTKGRPKAPQVYTIPPPKEQMAKDKVSLTCMITDFFPEDITVEWQWNGQPAENYKNTQPIMDTDGSYFVYSKLNVQKSNWEAGNTFTCSVLHEGLHNHHTEKSLSHSPGK
light: DIKMTQSPSSMYASLGERVTITCKASQDINSYLSWFQQKPGKSPKTLIYRANRLVDGVPSRFSGSGSGQDYSLTISSLEYEDMGIYFCLQYDDFPYTFGGGTKLEIKRADAAPTVSIFPPSSEQLTSGGASVVCFLNNFYPKDINVKWKIDGSERQNGVLNSWTDQDSKDSTYSMSSTLTLTKDEYERHNSYTCEATHKTSTSPIVKSFNRNEC
B4: R_4: rabbit-derived IL-19 antibody; LCVR SEQ ID NO: 58, HCVR SEQ ID NO: 62 (antibody, V domains shown)
VH: QCQSVEESGGRLVTPGTPLTLTCTVSGIDLSIYAMGWVRQAPGKGLEYIGIIDTTGTAYYARWAKGRFTISKTSATVALKITSPTTEDTATYFCARDSGSLYYGSYALWGPGTLVTVSS
VL: ADVVMTQTPSSVSEPVGGTVTIKCQASQSIYSYLSWYQQKPGQPPKLLIYEASKLASGVPSRFKGSGSGTQFTLTISGVECADAATYYCQQGYSSSNVDNTFGGGTEVVVT
B5: R_1: rabbit-derived IL-19 antibody; LCVR SEQ ID NO: 34, HCVR SEQ ID NO: 38 (antibody, V domains shown)
VH: QQLEESGGGLVQPEGSLTLTCTASGFSFSSSYWICWVRQAPGKGLEWLACIDTGVSGDTYYANWAEGRFTISKTSSTTVTLQMTSLTAADTATYFCARDIFGSAIDNSLWGPGTLVTVSS
VL: AIDMTQTPASVSEPVGGTVTIKCQASQSISSYLAWYQQKPGQPPKLLIYSASTLASGVPSRFRGSGSGREFTLTISDLECADAATYYCQCHYHGSSYWDNSFGGGTEVVVK
B6: R_2: rabbit-derived IL-19 antibody; LCVR SEQ ID NO: 42, HCVR SEQ ID NO: 46 (antibody, V domains shown)
VH: B5 VH with E66K
VL: ADVVMTQTPASVEAAVGGTVTIKCQASESIGNALAWYQQKPGQPPKLLIYDASKLASGVPSRFKGSGSGTQFTLTISDLECADAATYYCQCHYHGSSYWDNSFGGGTEVVVK
B7: R_3: rabbit-derived IL-19 antibody; LCVR SEQ ID NO: 50, HCVR SEQ ID NO: 54 (antibody, V domains shown)
VH: QCQSLEESGGGLVEPEGSLTLTCKASGFSFSSSYWICWVRQAPGKGLEWIACTDTFSGDTYYASWAKGRFTISKTSSTTVTLRMTSLTDADTATYFCARDIFGTAVHISLWGPGTLVTVSS
VL: B6 VL with A10S, E28Q, N32S, A33S, P44R, D51G, K54T, Q71E

In one experiment the target is T1, recombinant human IL-19 (Homo sapiens, UniProt Q9UHD0).
T1 sequence (Q9UHD0 25-177): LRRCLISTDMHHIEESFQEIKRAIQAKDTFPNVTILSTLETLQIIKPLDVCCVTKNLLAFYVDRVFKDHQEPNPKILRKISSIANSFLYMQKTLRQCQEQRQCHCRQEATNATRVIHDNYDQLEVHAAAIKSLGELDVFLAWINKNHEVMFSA
Description: PathHunter eXpress IL20RA/IL20RB dimerization assay (cell-based neutralization). Also noted: host or cells: PathHunter eXpress IL20RA/IL20RB cells (DiscoverX 93-1027E3) carry the receptor partners. Particulars: eight experiments. The source says:
PathHunter® eXpress IL20RA/IL20RB dimerization assay (DiscoverX product code 93-1027E3) is used to assess ability of exemplified antibodies to prevent binding of human IL-19 recombinant protein in a cell-based assay format. The assay detects ligand induced dimerization of two subunits of a receptor-dimer pair. The cells have been engineered to co-express one receptor subunit fused to enzyme donor and a second dimer partner fused to enzyme acceptor. Binding of an agonist to one receptor subunit induces it to interact with its dimer partner, forcing complementation of the two enzyme fragments resulting in the formation of a functional enzyme that hydrolizes a substrate to generate a chemiluminescent signal. […] Human IL-19 recombinant protein with and without exemplified antibodies mixture is then incubated with cells overnight at 37° C./5% CO2. Substrate buffer is added to cells and incubated at room temperature for 1 hour in the dark before luminescent detection.
As to B1, the “% inhibition +/− SEM (maximum signal inhibition percentage)” value is 105.03 +/− 1.38%.

The next experiment has as its target T2, human IL-19 / human IL-20R beta Fc-fusion protein (Homo sapiens, UniProt Q9UHD0).
T2 sequence (Q9UHD0 25-177): T1 sequence (Q9UHD0 25-177)
As to the kind of experiment: BLI in vitro neutralization: IL-19 captured by antibody, then incubated with IL-20R beta Fc. Conditions: block of IL-19 binding to soluble receptor. The source says: Alternatively, a biophysical assay such as bio-layer interferometry (BLI) may be used for assessing neutralization of IL-19 by antibodies of the present invention. Binding between a ligand immobilized on the biosensor tip surface and an analyte in solution produces an increase in optical thickness at the biosensor tip, which results in a wavelength shift (expressed in nm). According to such assay, the IL-19 receptor (i.e., […]) is expressed in a membrane-free manner (such as with an Fc-fusion e.g. IL20Rbeta Fc chimera protein from R&D Systems catalog 1788-IR-050). […] The immobilized antibodies are then incubated with recombinant human IL-19 protein diluted to 100 nM using HBS-EP+ running buffer (GE Healthcare, 10 mM Hepes pH7.4+150 mM NaCl+3 mM EDTA+0.05% surfactant P20) for 240-300 secs. The human IL-19, after binding to the anti-IL-19 antibody, is assessed by incubation with human IL-20R beta Fc-fusion protein for 240-300 secs. The ability of the antibody to block or neutralize binding of the IL-19 ligand to the soluble receptor is observed as a minimal (<0.025 nm) increase in the wavelength during this step of the assay.
Consider B2, for which the Neutralization result is on record as “No”.

Regarding B1, the Neutralization result is “Yes (minimal (<0.025 nm) increase in the wavelength)”.

As for B3, the Neutralization entry is on record as “No”.

In a further experiment the target is T1, recombinant human IL-19. As to the kind of experiment: Bio-layer interferometry (BLI) binding kinetics and affinity (Octet Red96). Conditions: 25° C.; 1:1 binding model. The procedure: Bio-layer interferometry (BLI) assay, measured with a Octet Red96® instrument available from ForteBio (using HBS-EP+ running buffer (GE Healthcare, 10 mM Hepes pH7.4+150 mM NaCl+3 mM EDTA+0.05% surfactant P20) at 25° C.), is used to measure binding of the exemplified IL-19 antibodies of the present invention to recombinant human IL-19 (having the amino acid sequence set for in SEQ ID NO: 1).
Except as noted, all reagents and materials are from ForteBio (Freemont, Calif.). An AMQ biosensor is used to immobilize antibody of interest for analysis. […] Recombinant human IL-19 is prepared to concentrations of 270, 90, 30, 10, 3.33, 1.11, 0.370, and 0 (blank) nM by dilution into running buffer. Each analysis consists of: (1) capturing antibody samples on biosensors for 300 secs; (2) establishing a baseline by incubating antibody loaded biosensors with running buffer for 60 secs; (3) incubating antibody loaded biosensors with serially diluted recombinant human IL-19 for 300 secs to monitor association phase; (4) return of biosensor to running buffer to monitor dissociation phase.
Binding data is processed using standard double-referencing and fit to a 1:1 binding model using Data Analysis v9.0 evaluation software, to determine the association rate (kon, M^−1 s^−1 units), dissociation rate (koff, s^−1 units), and Rmax (nm units). The equilibrium dissociation constant (KD) was calculated from the relationship KD=koff/kon, and is in molar units.
For orientation: Biolayer interferometry detects binding as a change in optical thickness at a sensor tip.
Usually kon stands for a measure of how fast the partners come together. As for B4, the kon is 152000 M⁻¹ s⁻¹.

B5: the kon stood at 33300 M⁻¹ s⁻¹.

In the case of B6, the kon amounted to 428000 M⁻¹ s⁻¹.

With B7, the kon was found to be 391000 M⁻¹ s⁻¹.

In the next experiment the target is T1, recombinant human IL-19. Description: Binning by cross-competition binding assay (Octet Red96).
Conditions: not given
The source says: Binning experiments involve competing monoclonal antibodies against one another in a pairwise and combinatorial fashion for binding to a specific antigen. A “bin” is a relative concept, based upon the epitope regions represented within the panel of monoclonal antibodies being tested. Two antibodies belong to the same bin if they cannot pair with one another and share the same blocking profile when tested against the other antibodies (or bins of antibodies) in the test panel. Binning of exemplified antibodies of the present invention may be performed by cross-competition binding assays using the Octet Red96®, available from ForteBio, according to manufacturer instruction. Briefly, to determine if two antibodies share overlapping epitope regions, an exemplified antibody is labeled with biotin and captured onto streptavidin sensor tip. The coated biosensor up is then incubated with recombinant human IL-19 to saturate the capture antibody binding sites. The capture antibody-antigen complex is then incubated with a detection antibody. […] Antibodies with a same binding profile are grouped together into the same bin.
For B4, the “Binning Group” value was 4.

In the case of B5, the “Binning Group” value worked out at 3.

As for B6, the “Binning Group” value came out at 3.

B7: the “Binning Group” value is 3.
